Experimental data published in patent US20260242735A1 (UNIVERSIT T BASEL, published 2026).
Values belong to the binder of their own block, whether it stands above or below them.

Key:
Assay in all cases: alanine scan, flow cytometry, HEK293-T;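 also: antibody binding to each alanine-substituted CD33 mutant expressed transiently in HEK293-T, read as fluorescence minus background, mean of duplicates, relative to wild-type CD33 set as 100%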
human CD33 L210A = human CD33 L210A (human, UniProt P20138 18-364)
Sequence of human CD33 L210A (P20138 18-364 L210A limits assumed): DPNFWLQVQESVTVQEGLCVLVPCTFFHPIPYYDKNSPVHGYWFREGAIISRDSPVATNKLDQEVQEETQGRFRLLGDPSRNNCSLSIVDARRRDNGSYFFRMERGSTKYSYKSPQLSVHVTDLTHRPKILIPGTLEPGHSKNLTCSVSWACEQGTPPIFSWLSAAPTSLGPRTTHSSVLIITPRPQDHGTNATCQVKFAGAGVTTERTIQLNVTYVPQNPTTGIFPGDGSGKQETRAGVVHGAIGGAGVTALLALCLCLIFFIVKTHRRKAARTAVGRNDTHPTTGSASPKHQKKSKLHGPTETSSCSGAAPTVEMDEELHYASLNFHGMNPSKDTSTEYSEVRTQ

human CD33 F216A = human CD33 F216A (human, UniProt P20138 18-364)
Sequence of human CD33 F216A (P20138 18-364 F216A limits assumed): as the sequence (P20138 18-364 L210A limits assumed) above, with A193L, F199A counted along it

human CD33 K215A = human CD33 K215A (human, UniProt P20138 18-364)
Sequence of human CD33 K215A (P20138 18-364 K215A limits assumed): as the sequence (P20138 18-364 L210A limits assumed) above, with A193L, K198A counted along it

human CD33 T226A = human CD33 T226A (human, UniProt P20138 18-364)
Sequence of human CD33 T226A (P20138 18-364 T226A limits assumed): as the sequence (P20138 18-364 L210A limits assumed) above, with A193L, T209A counted along it

human CD33 A217S = human CD33 A217S (human, UniProt P20138 18-364)
Sequence of human CD33 A217S (P20138 18-364 A217S limits assumed): as the sequence (P20138 18-364 L210A limits assumed) above, with A193L, A200S counted along it

human CD33 Q236A = human CD33 Q236A (human, UniProt P20138 18-364)
Sequence of human CD33 Q236A (P20138 18-364 Q236A limits assumed): as the sequence (P20138 18-364 L210A limits assumed) above, with A193L, Q219A counted along it

human CD33 L197A = human CD33 L197A (human, UniProt P20138 18-364)
human CD33 F177A = human CD33 F177A (human, UniProt P20138 18-364)
human CD33 R225A = human CD33 R225A (human, UniProt P20138 18-364)
human CD33 I198A = biological target: T1, human CD33 I198A (human, UniProt P20138 18-364)
T1 construct: the '-,' is not explained
T1 sequence (P20138 18-364 I198A limits assumed): as the sequence (P20138 18-364 L210A limits assumed) above, with I181A, A193L counted along it

human CD33 A219S = human CD33 A219S (human, UniProt P20138 18-364)
Sequence of human CD33 A219S (P20138 18-364 A219S limits assumed): as the sequence (P20138 18-364 L210A limits assumed) above, with A193L, A202S counted along it

human CD33 D205A = human CD33 D205A (human, UniProt P20138 18-364)
Sequence of human CD33 D205A (P20138 18-364 D205A limits assumed): as the sequence (P20138 18-364 L210A limits assumed) above, with D188A, A193L counted along it

human CD33 S181A = human CD33 S181A (human, UniProt P20138 18-364)
Sequence of human CD33 S181A (P20138 18-364 S181A limits assumed): as the sequence (P20138 18-364 L210A limits assumed) above, with S164A, A193L counted along it

human CD33 I199A = human CD33 I199A (human, UniProt P20138 18-364)
Sequence of human CD33 I199A (P20138 18-364 I199A limits assumed): as the sequence (P20138 18-364 L210A limits assumed) above, with I182A, A193L counted along it

human CD33 G207A = human CD33 G207A (human, UniProt P20138 18-364)
Sequence of human CD33 G207A (P20138 18-364 G207A limits assumed): as the sequence (P20138 18-364 L210A limits assumed) above, with G190A, A193L counted along it

human CD33 G172A = human CD33 G172A (human, UniProt P20138 18-364)
Sequence of human CD33 G172A (P20138 18-364 G172A limits assumed): as the sequence (P20138 18-364 L210A limits assumed) above, with G155A, A193L counted along it

human CD33 A182S = human CD33 A182S (human, UniProt P20138 18-364)
Sequence of human CD33 A182S (P20138 18-364 A182S limits assumed): as the sequence (P20138 18-364 L210A limits assumed) above, with A165S, A193L counted along it

human CD33 I262A = human CD33 I262A (human, UniProt P20138 18-364)
human CD33 H310A = human CD33 H310A (human, UniProt P20138 18-364)
human CD33 T268A = human CD33 T268A (human, UniProt P20138 18-364)
human CD33 T303A = human CD33 T303A (human, UniProt P20138 18-364)
human CD33 L270A = human CD33 L270A (human, UniProt P20138 18-364)
human CD33 L271A = human CD33 L271A (human, UniProt P20138 18-364)
human CD33 T299A = human CD33 T299A (human, UniProt P20138 18-364)
human CD33 K312A = human CD33 K312A (human, UniProt P20138 18-364)
human CD33 D298A = human CD33 D298A (human, UniProt P20138 18-364)
human CD33 R296A = human CD33 R296A (human, UniProt P20138 18-364)
human CD33 P244A = human CD33 P244A (human, UniProt P20138 18-364)
human CD33 C274A = human CD33 C274A (human, UniProt P20138 18-364)
human CD33 V294A = human CD33 V294A (human, UniProt P20138 18-364)
human CD33 K250A = human CD33 K250A (human, UniProt P20138 18-364)
human CD33 N297A = human CD33 N297A (human, UniProt P20138 18-364)
human CD33 G263A = human CD33 G263A (human, UniProt P20138 18-364)
human CD33 V282A = human CD33 V282A (human, UniProt P20138 18-364)
human CD33 T284A = human CD33 T284A (human, UniProt P20138 18-364)
human CD33 V257A = human CD33 V257A (human, UniProt P20138 18-364)

- Mean % WT Binding (human CD33 L210A): 98.2%
- Mean % WT Binding (human CD33 F216A): 101%
- Mean % WT Binding (human CD33 K215A): 98.4%
- Mean % WT Binding (human CD33 T226A): 112%
- Mean % WT Binding (human CD33 A217S): 109%
- Mean % WT Binding (human CD33 Q236A): 111%
- Mean % WT Binding (human CD33 L197A): 125%
- Mean % WT Binding (human CD33 F177A): 67.5%
- Mean % WT Binding (human CD33 R225A): 123%
- Mean % WT Binding (human CD33 I198A): 114%
- Mean % WT Binding (human CD33 A219S): 117%
- Mean % WT Binding (human CD33 D205A): 2.8%
- Mean % WT Binding (human CD33 S181A): 116%
- Mean % WT Binding (human CD33 I199A): 125%
- Mean % WT Binding (human CD33 G207A): 109%
- Mean % WT Binding (human CD33 G172A): 109%
- Mean % WT Binding (human CD33 A182S): 115%
B1: Refmab #2 (antibody, V domains shown)
VH: QVQLVQSGAEVKKPGSSVKVSCKASGGTFSDYAISWVRQAPGQGLEWMGRIIPILGVADYAQKFQGRVTITADKSTRTAYMELSSLRSEDTAVYYCARNWADAFDIWGQGTMVTVSS
VL: DIQLTQSPSSLSASVGDRVTITCRASQGISSVLAWYQQKPGKAPKLLIYDASSLESGVPSRFSGSGSGTDFTLTISSLQPEDFATYYCQQFDSSITFGQGTKLEIK
notes: In the alanine scan antibodies were used as IgG or Fab

- Mean % WT Binding (human CD33 I262A): 115 % WT binding
- Mean % WT Binding (human CD33 H310A): 112 % WT binding
- Mean % WT Binding (human CD33 T268A): 107 % WT binding
- Mean % WT Binding (human CD33 T303A): 96.7 % WT binding
- Mean % WT Binding (human CD33 L270A): 119 % WT binding
- Mean % WT Binding (human CD33 L271A): 113 % WT binding
- Mean % WT Binding (human CD33 T299A): 96.3 % WT binding
- Mean % WT Binding (human CD33 K312A): 110 % WT binding
- Mean % WT Binding (human CD33 D298A): 81.5 % WT binding
- Mean % WT Binding (human CD33 R296A): 111 % WT binding
- Mean % WT Binding (human CD33 P244A): 112 % WT binding
- Mean % WT Binding (human CD33 C274A): 117 % WT binding
- Mean % WT Binding (human CD33 V294A): 105 % WT binding
- Mean % WT Binding (human CD33 K250A): 108 % WT binding
- Mean % WT Binding (human CD33 N297A): 108 % WT binding
- Mean % WT Binding (human CD33 G263A): 102 % WT binding
- Mean % WT Binding (human CD33 V282A): 112 % WT binding
- Mean % WT Binding (human CD33 T284A): 119 % WT binding
- Mean % WT Binding (human CD33 V257A): 108 % WT binding
B2: Refmab #2 (antibody, V domains shown)
VH: B1 VH
VL: B1 VL
notes: The alanine scan used IgG or Fab

- Mean % WT Binding (human CD33 L210A): 84%
- Mean % WT Binding (human CD33 F216A): 152%
- Mean % WT Binding (human CD33 K215A): 79.8%
- Mean % WT Binding (human CD33 T226A): 100%
- Mean % WT Binding (human CD33 A217S): 148%
- Mean % WT Binding (human CD33 Q236A): 104%
- Mean % WT Binding (human CD33 L197A): 91.4%
- Mean % WT Binding (human CD33 F177A): 60.4%
- Mean % WT Binding (human CD33 R225A): 98.9%
- Mean % WT Binding (human CD33 I198A): 91.2%
- Mean % WT Binding (human CD33 A219S): 113%
- Mean % WT Binding (human CD33 D205A): 8.1%
- Mean % WT Binding (human CD33 S181A): 128%
- Mean % WT Binding (human CD33 I199A): 112%
- Mean % WT Binding (human CD33 G207A): 105%
- Mean % WT Binding (human CD33 G172A): 107%
- Mean % WT Binding (human CD33 A182S): 127%
B3: Refmab #3 (antibody, V domains shown)
VH: QVQLVQSGAEVKKPGSSVKVSCKASGYTFTDYNMHWVRQAPGQGLEWIGYIYPYNGGTGYNQKFKSKATITADESTNTAYMELSSLRSEDTAVYYCARGRPAMDYWGQGTLVTVSS
VL: DIQMTQSPSSLSASVGDRVTITCRASESVDNYGISFMNWFQQKPGKAPKLLIYAASNQGSGVPSRFSGSGSGTDFTLTISSLQPDDFATYYCQQSKEVPWTFGQGTKVEIK
notes: as for B1

- Mean % WT Binding (human CD33 L210A): 92.3%
- Mean % WT Binding (human CD33 F216A): 71.6%
- Mean % WT Binding (human CD33 K215A): 96.7%
- Mean % WT Binding (human CD33 T226A): 91.9%
- Mean % WT Binding (human CD33 A217S): 61.1%
- Mean % WT Binding (human CD33 Q236A): 103%
- Mean % WT Binding (human CD33 L197A): 95.3%
- Mean % WT Binding (human CD33 F177A): 25.4%
- Mean % WT Binding (human CD33 R225A): 108%
- Mean % WT Binding (human CD33 I198A): 94.4%
- Mean % WT Binding (human CD33 A219S): 112%
- Mean % WT Binding (human CD33 D205A): 0.1%
- Mean % WT Binding (human CD33 S181A): 114%
- Mean % WT Binding (human CD33 I199A): 114%
- Mean % WT Binding (human CD33 G207A): 87.1%
- Mean % WT Binding (human CD33 G172A): 90.7%
- Mean % WT Binding (human CD33 A182S): 108%
B4: Refmab #4 (antibody, V domains shown)
VH: QVQLVQSGAEVKKPGESVKVSCKASGYTFTNYGMNWVKQAPGQGLEWMGWINTYTGEPTYADKFQGRVTMTTDTSTSTAYMEIRNLGGDDTAVYYCARWSWSDGYYVYFDYWGQGTSVTVSS
VL: DIVMTQSPDSLTVSLGERTTINCKSSQSVLDSSTNKNSLAWYQQKPGQPPKLLLSWASTRESGIPDRFSGSGSGTDFTLTIDSPQPEDSATYYCQQSAHFPITFGQGTRLEIK
notes: as for B1

- Mean % WT Binding (human CD33 L210A): 93%
- Mean % WT Binding (human CD33 F216A): 87.3%
- Mean % WT Binding (human CD33 K215A): 84.5%
- Mean % WT Binding (human CD33 T226A): 92%
- Mean % WT Binding (human CD33 A217S): 80.2%
- Mean % WT Binding (human CD33 Q236A): 89.5%
- Mean % WT Binding (human CD33 L197A): 95.5%
- Mean % WT Binding (human CD33 F177A): 68.4%
- Mean % WT Binding (human CD33 R225A): 97.8%
- Mean % WT Binding (human CD33 I198A): 86.7%
- Mean % WT Binding (human CD33 A219S): 104%
- Mean % WT Binding (human CD33 D205A): 1.6%
- Mean % WT Binding (human CD33 S181A): 85.5%
- Mean % WT Binding (human CD33 I199A): 98.5%
- Mean % WT Binding (human CD33 G207A): 94.1%
- Mean % WT Binding (human CD33 G172A): 86%
- Mean % WT Binding (human CD33 A182S): 85.8%
B5: Refmab #1 (antibody, V domains shown)
VH: EVQLVQSGAEVKKPGSSVKVSCKASGYTITDSNIHWVRQAPGQSLEWIGYIYPYNGGTDYNQKFKNRATLTVDNPTNTAYMELSSLRSEDTAFYYCVNGNPWLAYWGQGTLVTVSS
VL: DIQLTQSPSTLSASVGDRVTITCRASESLDNYGIRFLTWFQQKPGKAPKLLMYAASNQGSGVPSRFSGSGSGTEFTLTISSLQPDDFATYYCQQTKEVPWSFGQGTKVEVK
notes: In the alanine scan antibodies were used as IgG or Fab; also called hP67.6

- Mean % WT Binding (human CD33 I262A): 89.7 % WT binding
- Mean % WT Binding (human CD33 H310A): 97.4 % WT binding
- Mean % WT Binding (human CD33 T268A): 102 % WT binding
- Mean % WT Binding (human CD33 T303A): 94 % WT binding
- Mean % WT Binding (human CD33 L270A): 102 % WT binding
- Mean % WT Binding (human CD33 L271A): 100 % WT binding
- Mean % WT Binding (human CD33 T299A): 90.3 % WT binding
- Mean % WT Binding (human CD33 K312A): 83.8 % WT binding
- Mean % WT Binding (human CD33 D298A): 97.8 % WT binding
- Mean % WT Binding (human CD33 R296A): 101 % WT binding
- Mean % WT Binding (human CD33 P244A): 84.3 % WT binding
- Mean % WT Binding (human CD33 C274A): 88.4 % WT binding
- Mean % WT Binding (human CD33 V294A): 91.7 % WT binding
- Mean % WT Binding (human CD33 K250A): 86.7 % WT binding
- Mean % WT Binding (human CD33 N297A): 94.9 % WT binding
- Mean % WT Binding (human CD33 G263A): 98.9 % WT binding
- Mean % WT Binding (human CD33 V282A): 109 % WT binding
- Mean % WT Binding (human CD33 T284A): 92.8 % WT binding
- Mean % WT Binding (human CD33 V257A): 102 % WT binding
B6: Refmab #1 (antibody, V domains shown)
VH: B5 VH
VL: B5 VL
notes: The alanine scan used IgG or Fab; also called hP67.6
